Values quoted from earlier work, collected in article PMC5998221.

How the values were obtained:
[1] = target: Glu7 (UniProt position 25, VFGRCELAAAM)
[2] = target: Asp119 (UniProt position 137, RCKGTDVQAWI)
[3] = target: Glu35 (UniProt position 53, CAAKFESNFNT)
[4] = target: Asp101 (UniProt position 119, KKIVSDGNGMN)
[5] = target: Asp87 (UniProt position 105, ALLSSDITASV)
[6] = target: Asp18 (UniProt position 36, KRHGLDNYRGY)
[7] = target: Asp52 (UniProt position 70, TDGSTDYGILQ)
[8] = target: Asp66 (UniProt position 84, RWWCNDGRTPG)
[9] = target: Asp48 (UniProt position 66, TNRNTDGSTDY)

Hen egg white lysozyme (HEWL, lysozyme C) (Gallus gallus)
pKa [1]: 2.6 | pKa [2]: 3.5 | pKa [3]: 6.1 | pKa [4]: 4.5 | pKa [5]: 2.2 | pKa [6]: 2.8 | pKa [7]: 3.6 | pKa [8]: 1.2 | pKa [9]: 1.4
